Assay results published in the nanobody polyreactivity screen of Harvey et al. (2022).

Test: yeast display, Sf9 membrane polyspecificity reagent, FACS + sequencing; frameworks hold sequencing errors
Method in brief: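 Sorting gates, low and high (top ~1%), were placed on anti-HA fluorescence to track expression and on streptavidin fluorescence to track reagent binding. A clone's polyreactivity label is taken from the gate it came out of. The reagent was 10% biotinylated, detergent-solubilized Sf9 membrane, applied for 1 hour at 4 °C to galactose-induced yeast display cells.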
In the case of “QVQLVESGGGLVKAGGSLRLSCAASGSIFAFYAMGWYRPAPGKERELVAAINSGGGRTYYEDSVKGRFTISRDNAKYTVYLQMNSLKPEDTAVYYCAARTIHGSNRSYYWGQGTQVTVSS”, the “polyreactivity (PSR sort gate)” value is reported as “high polyreactivity”.
With “QVQLVESGGGLVQAGGSLRLSCAASGSIFSFNAMGWYRQAPGKERELVAAITTSGGSTYADSVKGLFTISRDNAKNTVYLQMNSLKPEDTAVYYCAVVGEVEGYYWDDYWGQGTKVTVSS” the “polyreactivity (PSR sort gate)” value was “low polyreactivity”.
For “QVQLVESGGGLVQAGGSLRLSCAASGRTFRRYVMGGYRQAPGKERELVATITSGGRTNYADSVKGRFTISRDNAKNTVYLQMNSLKPEDTAVYYCNAVRIGLRYYYWGQGTQVTVSS”, the “polyreactivity (PSR sort gate)” value was “low polyreactivity”.
For “QVQLVESGGGLVQAGGSLRLSCAASGIIFRLNAMGWYRQAPGKERELGAAIRRRGGSTYYADSVKGRFTISRDNAKNTVYLQMNSLKPEDTAVYYCAADAPWAYYEYDYWGQGTQVTVSS”, the “polyreactivity (PSR sort gate)” value was “low polyreactivity”.
With “QVQLVESGGGLVQAGGSLRLSCAASGFIFGTYAMGWYRQAPGKERELVAAISVGGGSTYYADSVKGRFTISRDKAKNTVYLQMNSLKPEDTADYYCAAVQLYQKHQITYVAHEYWGQGTQVTVSS” the “polyreactivity (PSR sort gate)” value was “low polyreactivity”.
In the case of “QVQLVESGGCLVQAGGSLRLSCAASGSIFPVNAMGWYRQAPGKERELVAAITSSGGTTYYADSVKGRFTISRDNAKNTVYLQMNSLKPEDTAVYYCAADVDVSYWRMEYWGQGTQVTVSS”, the “polyreactivity (PSR sort gate)” value is reported as “high polyreactivity”.
For “QVQLVESGGGLVQAGGSLRLSCAASGRIFKVNAMGWYRQAPGKERELVAAITRGGRTYADSVKGRFTISRDNAKNTVYLQMNSLKPEDTAVYYCAADVLEGWFKRYYYWGQGTQVTVSS”, the “polyreactivity (PSR sort gate)” value was “high polyreactivity”.
For “QVQLVESGGGLVQAGGSLRLSCAASGSIFKYYTMGWYRQAPGKERELVASINGGGSTNYADSVKGRFTISRDNAKNTVYLQMNSLKPEDTAVYYCNARYWWQDGYWGQGTQVTVSS”, the “polyreactivity (PSR sort gate)” value was “high polyreactivity”.
For “QVQLVESGGGLVHAGGSLRLSCAASGFIFNFYAMGWYRQAPGKERELVAAISRTGGSTYYADSVKGRFTISRDNAKNTVYLQMNSLKPEDTAVYYCNAGCGFRSYGYDPWGQGTQVTVSS”, the “polyreactivity (PSR sort gate)” value was “high polyreactivity”.
In the case of “QVQLVESGGGLVQAGGSLRLSCAASGSISYRYVMGWYRQAPGKERELVAAITTSGGSTYYADSVKGRFTISRDNAKNTVYLQMNSLKPEDTAVYDCAAKHNVYRYSRYYWGQGTQVTVSS”, the “polyreactivity (PSR sort gate)” value is reported as “high polyreactivity”.
For “QVQLVESGGGLVQAGGSLRLSCAASGSIFEFNTMGWYRQAPGKERELVAAISSSGGRTYYADSVKGRFTISRDNAKNSVYLQMNSLKPEDTAVYYCNARRFVHNPDYDYWGQGTQVTVSS”, the “polyreactivity (PSR sort gate)” value was “high polyreactivity”.
With “QVQLVESGGGLVKAVGSLRLSCAPSGRISGVYAMGWYRQAPGKERELVAAISWSGGPTYYADSVKGRFTISRDNAKNTFYLEMTSLKPEDTAVYYCNGDTGFRSYLRVYWGQGTQVTVSS” the “polyreactivity (PSR sort gate)” value was “low polyreactivity”.
With “QVQLVESGGGLVQAGGSLRLSCAASGSTFYYYAMGWYRQAPGKERELVATIDSGTSTYYADSVKGRFTISRDNAKNTVYLQMISLKPEDTAVYYCAAKTWSWSYGYNYWGQGTQVTVSS” the “polyreactivity (PSR sort gate)” value was “low polyreactivity”.
For “QVQLVESGGGLVQAGGSLRLSCAASGRIFEVYVMGWYRQAPGKERELVAAITTSGGSTYYADSVKGRFTISRDNAKNTVYLQMNSLKPEDTAVYYCNRYWHLAGSWGQGTQVTVSS”, the “polyreactivity (PSR sort gate)” value was “low polyreactivity”.
With “QVQLLESGGGLVQAGGSLRLTCAASGRIFAYYAMAWYRQAPGKERELVAAITSGGSTYYADSVKGRFTISRDNAKNTVYLQMNILKPEDTAVYYCNAGYGQWSRGHWRLSSVPYYYWGQGTQVTVSS” the “polyreactivity (PSR sort gate)” value was “high polyreactivity”.
With “QVQLVESGGALVQAGGSLRLSCAASGRIFLKYTMGWYRQAPGKERELVAAISRGGSTYYADSVKGRFTISRDNAKNTVYLQMNSLKPEDTAVYYCAATSYRRTGYNYWGQGTQVTVSS” the “polyreactivity (PSR sort gate)” value was “high polyreactivity”.
With “QVQLVESGGGLVQAGGSLRLSCADSGFIFTVNAMGLYRQAPGKERELVAAITSGGNTYYADSVKGRFTISRDNAKNTVYLQMNSLKPEDAAVYYCNAVFYTWSPYGTTVRSYGYWGQGTQVTVSS” the “polyreactivity (PSR sort gate)” value was “high polyreactivity”.
In the case of “QGQLVESGGGLVQAGGSLRLSCAASGRTLQYNAMGWYRPAPGKEWELVAAITSNGGSTYYADSVKGRFPISRDNAKNTVYLQMNSQKPEDTAVYDCAKAYRYVDRGYRLLRYGYWGQGNQVTVSS”, the “polyreactivity (PSR sort gate)” value is reported as “high polyreactivity”.
In the case of “QVQLVESGGGLVQAGGSLRLSCAASGGIFFSNVMGWYRQAPGKERELVAAITSGDNTNYADSVKGRFTISRDNAKNTVYLQMNSLKPEDTAVYYCNADVASEYSDKYDYWGQGTQVTVSS”, the “polyreactivity (PSR sort gate)” value is reported as “low polyreactivity”.
With “QVQLVESGGGLVQAGGSLRLSCAASGRSFEVYVMGWYRQAPGKERELVAAISTGGSTYYADSVKGRFTISRDNAKNTVYLQMNSLKPEDTAVYYCAAKRTGNGYPRSGYSRYEYWGQGTQVTVSS” the “polyreactivity (PSR sort gate)” value was “high polyreactivity”.
With “QVQLVESGGGLVQAGGSLRLSCAASGRTFDRNAMGWYRKAPGKERELVARITIDGSTNYADSVKGRFTISRDNAKNTVYLQMNSLKPEDTGVYYCAAYSASYGGYDYWGQGTQVTVSS” the “polyreactivity (PSR sort gate)” value was “high polyreactivity”.
In the case of “QVQLVESGGGLVQAGGSLRLSCAASGFIFFGEYVMGWYRQAPGKEREFVAAITDSDGSTYYADSVKGRFTISRDNAKNTVYLQMTSLKPEDTAVYYCAAERVCSDMDYWGQGTQVTVSS”, the “polyreactivity (PSR sort gate)” value is reported as “low polyreactivity”.
With “QVQLVESGGGLVQAGGSLRLSCAASGSIFGSYTMGWYRQAPGKERELVAAISLGGGSTYYADSVKGRFSISRDNAKNTVYLQMNSLKPEDTAVYYCAAGFTYPYDYWGQGTQVTVSS” the “polyreactivity (PSR sort gate)” value was “low polyreactivity”.
With “QVQLEESGGGLVQAGGSHRLSCAASGIIFSKYAMGWYRPAPGKEREFGAAISQRGGRTYYADSVKGRFTISRDNAKNTVYLQMNSLNTEDTAVYYCAATGTGGVYPLDYGGQGTQVTVSS” the “polyreactivity (PSR sort gate)” value was “high polyreactivity”.
In the case of “QVQLVESGGGLVQAGGSLRLSCAASGRIFSRYAMGWYRQAPGKERELVAAITYSGGSTYYADSVKGRFTISRDNAKNTVYLQMNSLKPEDTAVYYCNAATYGGRYYYWGQGTQVTVSS”, the “polyreactivity (PSR sort gate)” value is reported as “high polyreactivity”.
With “QAQLVESGGGLVQAGRSLRLSCAASGSTFRWYAMGWYRQAPGKERELVAAITSSGSTYYADSVKGRFTISRDNAKTTVYLQMNSLKPEDTAVYYCAARANGYWNTYEHDYWGQGIQVTVSS” the “polyreactivity (PSR sort gate)” value was “low polyreactivity”.
In the case of “QVQLVESGGGLVQAGGSLRLSCAASGFTFRYYAMGWYRQAPGKEREFVAAIRRSGANTYYADSVKGRFTISRDNAKNTVYLQMNSLKPEDTAVYYCAADKNYYPYKFDYWGQGTQVTVSS”, the “polyreactivity (PSR sort gate)” value is reported as “high polyreactivity”.
For “QLQLVESGGGLVQAGGSLRLRCAASGNTFYQYAMGWYIQAPGQQREMVAAISSGGRTNYADSVKGRFTISRDNAKNNVYLQMNSLKPEDTAVYYFAADVGYFKSDYWGQGTQVTVSS”, the “polyreactivity (PSR sort gate)” value was “low polyreactivity”.
In the case of “QVQLVESGGGLVQAGGSIRLSCAASGGTFSYYAMGWYRQAPGKESELVAAISGNGDTTYYADSVKGRFTISRDNAKNTDYVQMNSLKPEDTAVYYCATAFSYGGGAYDYWGQGTLVTVSS”, the “polyreactivity (PSR sort gate)” value is reported as “low polyreactivity”.
With “QVQLVESGGGLVHGGGSLRLSCAASGSILHYNTMGWYRQAPGKEREFVASISYSGGSTYYADSVKGRFTISRDNAKNTVYLQMNSLKPEDTAVYYCATEGMDFWFIYYYWGQGTQVTVSS” the “polyreactivity (PSR sort gate)” value was “low polyreactivity”.
